# Measurements published in US20250043302A1, “MUTATED HYDROXYPHENYLPYRUVATE DIOXYGENASE POLYPEPTIDE, AND CODING GENE AND USE THEREOF” (BEIJING DABEINONG BIOTECHNOLOGY CO., LTD., priority 2021, published 2025).
# B1: NtHPPDm-F372A-02: nucleotide sequence encoding Nicotiana tabacum HPPD with F372A; vector DBN11751 (nucleic acid)
# DNA: ATGGGGAAGCTGGAAACCGTCACTACCACCTCGGCGGCGGCTGCTGATGATTCATCGGAATTAACAACCAACTTCAAGTTGGTTGGTTTCAAAAATTTCATCAGAACAAACCCAAGGTCTGATTTCTTCTCCGTCAAGAGCTTCCACCACATTGAATTCTGGTGCGGTGACGCAACTAACACAGCGCGCCGCTTCTCATGGAGCCTAGGGATGCCAATTGCAGCTAAGAGTGATCTTTCAACAGGAAACAGCGTGCACGCCTCCTACCTCCTCCGGCCCGTAAGCGGTTCTTTACAGTTCCTGTTTACAGCACCATATTCACCTTCTATTTCGACTCCTAGTTCAGCTGCAATCCCATCTTTTTCCACATCTACACATAGGTCTTTCACTACAACACATGGACTGGGTGTTCGTGCCGTCGCCCTCGAGGTGGAGAATGCTTATACTGCCTTCAGTGCTTCTGTCTCCAGAGGCGCCAAGCCAATGTTTGAACCTGTGACAATTGATGAACAAGTAGCAATGGCTGAGGTTCATTTGTACGGCGATGTTGTGCTGCGATTTGTTTCTTATCTCAAGGACGCCGACAACCTGGTCTTCCTGCCGGGGTTTGAGGCCATGGATGAAACTGCTAGTTACAAAGAACTTGATTATGGAATACGGCGTTTGGATCATGCTGTGGGCAATGTTCCAGAACTCGGCCCGGTAGTTGATTACATCAAGAGGTTTACTGGATTTCATGAATTTGCAGAGTTTACCGCTGAAGATGTGGGAACTGCGGAAAGTGGGCTAAACTCCATGGTTCTTGCGAACAATGATGAGACTGTGCTCCTCCCTCTGAATGAGCCTGTTTATGGCACCAAAAGAAAATCTCAGATACAAACATATCTTGAGCATAATGAAGGAGCTGGGGTGCAGCACCTTGCTCTTGTTACTGAAGACATCTTTAAGACTTTGACAGAGATGAGGAAGAGAAGTGGAGTTGGAGGTTTTGAGTTCATGCCTTCCCCCCCGCCGACCTACTACAAGAATTTGAAGAACAGGGCTGGTGACGTCCTCTCAGACGAGCAGATTTTGGCTTGTGAGGAGCTTGGCATCTTGGTAGACCGGGACGACCAGGGGACGCTTCTCCAAATTGCCACAAAACCCGTCGGGGACCGCCCCACCATATTTATTGAGATCATCCAGAGGATAGGCTGCATGCTTAAAGATGGAAAAGGTCAAGTGTACCAGAAGGGTGGTTGTGGTGGGTTTGGCAAAGGAAATTTTTCTGAGCTGTTCAGAAGCATAGAAGAATATGAGAAGACACTGGAAGCAAAACAAGCAAATCAAGTTGCGGCCGCGTGA
# modifications: NtHPPDm-F372A-02 Nucleotide Sequence
# notes: vector DBN11751
# Columns and labels:
# Assay type in all cases: in vivo
# [1] = tested on: Arabidopsis thaliana T1 plants; test: Mesotrione tolerance of transgenic Arabidopsis thaliana T1 plants (spray, bleached leaf area grade, damage score); parameters: Scores: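 damage score 0-100 computed as Σ(N×S)/(T×M)×100 over grades 0-3 with higher meaning more damage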; settings: Arabidopsis thaliana T1 plants; for Grade 0 (classification and statistics of the grade of pesticide damage; number of plants) / Grade 1 (classification and statistics of the grade of pesticide damage; number of plants) / Grade 2 (classification and statistics of the grade of pesticide damage; number of plants) / Grade 3 (classification and statistics of the grade of pesticide damage; number of plants): 16 plants
# Procedure, shortened: (§1)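 T1 transformants selected by glufosinate; 18-day-old plants, with empty-vector and wild-type controls, sprayed with topramezone (25–200 g ai/ha), isoxaflutole (35–280 g ai/ha) or mesotrione (52.5–420 g ai/ha), water as 0×. Bleached leaf area fraction scored at 7 DAT as grades 0–3.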
# [2] = tested on: Arabidopsis thaliana T1 plants; test: Topramezone tolerance of transgenic Arabidopsis thaliana T1 plants (spray, bleached leaf area grade, damage score); settings: 7 DAT, Table 4; for Classification and statistics of the grade of pesticide damage: Grade 0 / Classification and statistics of the grade of pesticide damage: Grade 1 / Classification and statistics of the grade of pesticide damage: Grade 2 / Classification and statistics of the grade of pesticide damage: Grade 3: number of plants; for Scores: pesticide damage score 0-100
# Procedure, shortened: as §1
# [3] = tested on: Arabidopsis thaliana T1 plants; test: Isoxaflutole tolerance of transgenic Arabidopsis thaliana T1 plants (spray, bleached leaf area grade, damage score); parameters: Scores (pesticide damage): scale not given here; settings: spray, Arabidopsis thaliana T1 plants; for Classification and statistics of the grade of pesticide damage: Grade 0 (number of plants) / Classification and statistics of the grade of pesticide damage: Grade 1 (number of plants) / Classification and statistics of the grade of pesticide damage: Grade 2 (number of plants) / Classification and statistics of the grade of pesticide damage: Grade 3 (number of plants): 16 plants
# Procedure, shortened: as §1
# [4] = isoxaflutole 35 g ai/ha (0.5x field concentration)
# [5] = isoxaflutole 70 g ai/ha (1x field concentration)
molecule,measurement,setting,value
B1,Resistance evaluation,[1]; mesotrione 52.5 g ai/ha,Poorly resistant
same,Scores,[1]; mesotrione 52.5 g ai/ha,65
same,Grade 0 (classification and statistics of the grade of pesticide damage; number of plants),[1]; mesotrione 52.5 g ai/ha,0
same,Grade 1 (classification and statistics of the grade of pesticide damage; number of plants),[1]; mesotrione 52.5 g ai/ha,2
same,Grade 2 (classification and statistics of the grade of pesticide damage; number of plants),[1]; mesotrione 52.5 g ai/ha,13
same,Grade 3 (classification and statistics of the grade of pesticide damage; number of plants),[1]; mesotrione 52.5 g ai/ha,1
same,Resistance evaluation,[1]; mesotrione 105 g ai/ha,Non-resistant
same,Scores,[1]; mesotrione 105 g ai/ha,100
same,Grade 0 (classification and statistics of the grade of pesticide damage; number of plants),[1]; mesotrione 105 g ai/ha,0
same,Grade 1 (classification and statistics of the grade of pesticide damage; number of plants),[1]; mesotrione 105 g ai/ha,0
same,Grade 2 (classification and statistics of the grade of pesticide damage; number of plants),[1]; mesotrione 105 g ai/ha,0
same,Grade 3 (classification and statistics of the grade of pesticide damage; number of plants),[1]; mesotrione 105 g ai/ha,16
same,Classification and statistics of the grade of pesticide damage: Grade 0,[2]; topramezone 25 g ai/ha (1×),0
same,Classification and statistics of the grade of pesticide damage: Grade 1,[2]; topramezone 25 g ai/ha (1×),6
same,Classification and statistics of the grade of pesticide damage: Grade 2,[2]; topramezone 25 g ai/ha (1×),10
same,Classification and statistics of the grade of pesticide damage: Grade 3,[2]; topramezone 25 g ai/ha (1×),0
same,Classification and statistics of the grade of pesticide damage: Grade 0,[2]; topramezone 100 g ai/ha (4×),0
same,Classification and statistics of the grade of pesticide damage: Grade 1,[2]; topramezone 100 g ai/ha (4×),0
same,Classification and statistics of the grade of pesticide damage: Grade 2,[2]; topramezone 100 g ai/ha (4×),0
same,Classification and statistics of the grade of pesticide damage: Grade 3,[2]; topramezone 100 g ai/ha (4×),16
same,Scores,[2]; topramezone 25 g ai/ha (1×),54
same,Scores,[2]; topramezone 100 g ai/ha (4×),100
same,Resistance evaluation,[2]; topramezone 25 g ai/ha (1×),poorly
same,Resistance evaluation,[2]; topramezone 100 g ai/ha (4×),non-resistant (non-resistant plants (scores 68-100))
same,Resistance evaluation,[3]; [4],Poorly
same,Scores (pesticide damage),[3]; [4],54
same,Classification and statistics of the grade of pesticide damage: Grade 0 (number of plants),[3]; [4],0
same,Classification and statistics of the grade of pesticide damage: Grade 1 (number of plants),[3]; [4],6
same,Classification and statistics of the grade of pesticide damage: Grade 2 (number of plants),[3]; [4],10
same,Classification and statistics of the grade of pesticide damage: Grade 3 (number of plants),[3]; [4],0
same,Resistance evaluation,[3]; [5],Non-resistant
same,Scores (pesticide damage),[3]; [5],100
same,Classification and statistics of the grade of pesticide damage: Grade 0 (number of plants),[3]; [5],0
same,Classification and statistics of the grade of pesticide damage: Grade 1 (number of plants),[3]; [5],0
same,Classification and statistics of the grade of pesticide damage: Grade 2 (number of plants),[3]; [5],0
same,Classification and statistics of the grade of pesticide damage: Grade 3 (number of plants),[3]; [5],16
